# Assay results from the supplement of paper PMC9732359.
# ± gives the uncertainty stated by the source.
# Test: protein stability index of a GFP-peptide fusion (yeast GPS) (PSI 1-4); higher = more stable; sorted into four equal gates, so the index is relative within each strain
# Outline: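 Sequencing reads from sorted gates were used to score each peptide. The library consisted of tiled 17-residue yeast protein peptides fused downstream of GFP on a Cherry-expressing plasmid, pooled and carried in yeast. Mid-log cultures in leucine-free medium were split into four equal gates by GFP/Cherry ratio, and each gate's plasmids were PCR-amplified and Illumina-sequenced. The protein stability index adds up, over all gates, the read frequency multiplied by the gate number.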
Sequence,protein stability index (doa10∆),protein stability index (pdr5∆),protein stability index (san1∆),protein stability index (ubr1∆)
YLTPPHECRLRDMTYSA [RET1],3.22 ± 0.11,3.02 ± 0.12,2.76 ± 0.16,3.14 ± 0.15
LYKIFSYALSMEKDKLK [SNU114],1.84 ± 0.097,1.33 ± 0.052,1.63 ± 0.17,1.65 ± 0.049
TYGFSILDIVINNPVNL [FAS1],2.07 ± 0.087,2.37 ± 0.075,2.53 ± 0.092,3.02 ± 0.074
NIKTSEWDLYPQGFSSV [REC8],2.91 ± 0.26,2.82 ± 0.2,–,–
KKGVRVTLDITTLTIMR [RPT4],2.48 ± 0.093,2.08 ± 0.11,2.23 ± 0.079,2.56 ± 0.082
AGKFELLDRILPKLKAT [SNF2],1.18 ± 0.17,2.05 ± 0.14,1.77 ± 0.19,1.95 ± 0.17
AVEKTLALGCHFQDQKN [POP7],2.42 ± 0.12,3.12 ± 0.11,2.87 ± 0.078,2.78 ± 0.096
PGPYPNEQAARAANQGA [CYT1],2.35 ± 0.053,2.68 ± 0.045,2.33 ± 0.059,2.3 ± 0.05
SGGWGVPRKFKHFIQGG [RPL7A],–,3.23 ± 0.18,–,–
GLSQTEAFGNIKIDAKP [MCD1],2.07 ± 0.083,2.87 ± 0.15,1.77 ± 0.2,2.48 ± 0.078
FSNRFLPVASPFHSHLL [FAS1],2.5 ± 0.13,2.98 ± 0.11,3.19 ± 0.27,2.76 ± 0.098
NTLEEFEHGRTPAEMSR [FAS2],2.8 ± 0.15,3.09 ± 0.16,3.19 ± 0.16,3.57 ± 0.15
ETFQDTFSGALGKQSSS [FAS2],3.23 ± 0.063,3.32 ± 0.066,3.15 ± 0.039,3.11 ± 0.055
GKPHFSLLGGFDENIAR [PCI8],3.18 ± 0.11,2.91 ± 0.12,3.25 ± 0.095,2.96 ± 0.076
LIAIVSKLLQTTLKLSP [NUT1],2.19 ± 0.042,1.39 ± 0.063,1.31 ± 0.11,1.21 ± 0.066
PLRENTNVLDVKDKEED [YDL116W/NUP84],3.07 ± 0.082,3.11 ± 0.1,3.25 ± 0.065,2.99 ± 0.11
FDDSDITKFALFAESHD [YML103C/NUP188],2.71 ± 0.3,–,2.92 ± 0.15,–
ESMAYTAFQTQRTAQDR [YML031W/NDC1],3.27 ± 0.076,3.27 ± 0.099,3.23 ± 0.067,2.85 ± 0.16
VCIRPSVMMQDSPASNE [RPO31],1.63 ± 0.085,2.08 ± 0.1,1.94 ± 0.11,2.06 ± 0.099
QVMEEKLDENNAQLSCI [PUP2],3.31 ± 0.086,2.69 ± 0.27,2.86 ± 0.19,3.17 ± 0.17
IRAELLNDRKVLFAAYK [RPB11],2.18 ± 0.081,2.19 ± 0.063,2.45 ± 0.098,2.23 ± 0.061
KKVSRRNARATRAAKIA [RPL13A],2.25 ± 0.085,2.9 ± 0.1,2.39 ± 0.077,2.77 ± 0.045
NKVQIMIATNVAARGLD [PRP28],1.45 ± 0.061,1.5 ± 0.078,1.43 ± 0.15,1.19 ± 0.055
SQLKKTKAQQKTAEQIA [RPL7B],2.9 ± 0.085,2.92 ± 0.11,2.95 ± 0.067,2.86 ± 0.048
TSKSFSKLLYDDVTCDK [SIN4],3.01 ± 0.077,2.9 ± 0.051,2.7 ± 0.054,3.16 ± 0.039
VPEMIGSVVGIYNGKAF [RPS15],1.27 ± 0.15,1.34 ± 0.074,1.66 ± 0.24,1.41 ± 0.072

Sequence,protein stability index (doa10∆),protein stability index (pdr5∆),protein stability index (san1∆),protein stability index (ubr1∆)
SQIIPLMKKACYVGLLT [SNU114],1.67 ± 0.049,1.82 ± 0.06,1.75 ± 0.07,1.83 ± 0.043
GGDVVKFQKLLQNSERD [SMC4],3.15 ± 0.073,3.11 ± 0.049,3.06 ± 0.047,2.96 ± 0.052
APDGSASISLPNHIPSV [SWP82],3.36 ± 0.11,2.54 ± 0.068,2.77 ± 0.097,3.3 ± 0.044
YFRILLPYERHMISQEG [SWI1],1.37 ± 0.052,1.54 ± 0.047,1.5 ± 0.097,1.6 ± 0.045
EEFAYVDPARRQILFKY [MED6],2.57 ± 0.085,2.19 ± 0.061,2.02 ± 0.09,2.06 ± 0.053
KDLVKNNVSFNAKDIQI [FAS1],2.46 ± 0.041,2.62 ± 0.061,2.69 ± 0.07,2.71 ± 0.043
KWDITTRNSNNLAIVEL [BRR2],3.16 ± 0.071,2.83 ± 0.059,3.21 ± 0.051,3.54 ± 0.064
KRSGHRTAPKSDNVYLK [RPL18A],2.85 ± 0.12,2.68 ± 0.095,2.69 ± 0.12,2.61 ± 0.077
WNRLTISVTDTEVERAK [COR1],3.19 ± 0.09,3.12 ± 0.076,3.08 ± 0.051,3.21 ± 0.085
LAVTNLLIISCIIFITF [YML031W/NDC1],1.34 ± 0.034,1.53 ± 0.034,1.42 ± 0.061,1.55 ± 0.03
FITAKDKYKLYPVRIPR [YJR042W/NUP85],2.87 ± 0.06,2.73 ± 0.087,3.06 ± 0.077,2.89 ± 0.069
KVKILEQIDENWSKEDL [SWI3],3.12 ± 0.079,2.92 ± 0.091,2.88 ± 0.097,2.89 ± 0.091
FRKVKLRVDEVQGKNLL [RPS1B],3.25 ± 0.1,3.35 ± 0.15,–,3.28 ± 0.074
MAKVHGSLARAGKVKSQ [RPS30A],2.38 ± 0.067,2.7 ± 0.068,2.49 ± 0.066,2.44 ± 0.054
GLHKFVKGDLLQEAIDF [PRE10],2.93 ± 0.1,2.83 ± 0.079,3.09 ± 0.082,2.99 ± 0.053
VVDPKTSIEKSSEILSY [YML103C/NUP188],1.49 ± 0.087,1.43 ± 0.13,1.16 ± 0.12,1.12 ± 0.063
RKLINYTKKHLSSHSST [RPN4],1.34 ± 0.063,1.71 ± 0.049,1.41 ± 0.088,1.28 ± 0.04
TLENTLKAAFVAIGNTY [RPS2],1.86 ± 0.16,1.9 ± 0.11,1.72 ± 0.14,1.94 ± 0.091
GHIAKLMATEYQDIEGG [RPB2],3.45 ± 0.29,–,–,3.18 ± 0.13
FNKNLGKGPGCGFWQPA [PRP8],3.18 ± 0.16,3.25 ± 0.15,3.39 ± 0.14,3.54 ± 0.075
VEPVTERTKLQEHTIFT [SNU114],2.2 ± 0.2,2.35 ± 0.074,1.8 ± 0.21,–
LAHYVVTAKLLGFTPGE [FAS1],1.6 ± 0.13,1.28 ± 0.082,–,1.48 ± 0.12
VNYRHFKAMEDVIAWKN [ITC1],2.98 ± 0.15,3.36 ± 0.17,3.27 ± 0.077,3.37 ± 0.065
LLNHGERAELETDEYIS [RPN1],1.55 ± 0.16,1.87 ± 0.083,3.08 ± 0.11,2.66 ± 0.11
TEEELQAAVPDNAEDDS [BRN1],3.2 ± 0.094,3.14 ± 0.089,3.05 ± 0.083,3.02 ± 0.055
